± gives the uncertainty stated by the source.

B1: Intersectin-1, residues 909 to 971; numbered along this chain, Q15811 (parent)
chain: QGEKVEGLQAQALYPWRAKKDNHLNFNKNDVITVLEQQDMWWFGEVQGQKGWFPKSYVKLISG

The series covers variants of B1. Briefly: abundance fitness (aPCA) (normalised: wild type 0, dead -1); higher = more abundant; growth selection in yeast, the domain comes from the species named. To be noted: Homo sapiens.
For QGEKVEGLQAQALYYWRAKKDNHLNFNKNDVITVLEQQDMWWFGEVQGQKGWFPKSYVKLISG, the abundance fitness was -0.269 ± 0.22.
The value for QGEKVEGLQAQALYCWRAKKDNHLNFNKNDVITVLEQQDMWWFGEVQGQKGWFPKSYVKLISG was -0.059 ± 0.18; that for QGEKVEGLQAQALYNWRAKKDNHLNFNKNDVITVLEQQDMWWFGEVQGQKGWFPKSYVKLISG was 0.087 ± 0.21.
As for QGEKVEGLQAQALYKWRAKKDNHLNFNKNDVITVLEQQDMWWFGEVQGQKGWFPKSYVKLISG, the figure is -0.14 ± 0.23; as for QGEKVEGLQAQALYMWRAKKDNHLNFNKNDVITVLEQQDMWWFGEVQGQKGWFPKSYVKLISG, 0.114 ± 0.21; as for QGEKVEGLQAQALYLWRAKKDNHLNFNKNDVITVLEQQDMWWFGEVQGQKGWFPKSYVKLISG, -0.338 ± 0.13.
On to QGEKVEGLQAQALYAWRAKKDNHLNFNKNDVITVLEQQDMWWFGEVQGQKGWFPKSYVKLISG, for which the abundance fitness was determined as 0.017 ± 0.11.
The value for QGEKVEGLQAQALYSWRAKKDNHLNFNKNDVITVLEQQDMWWFGEVQGQKGWFPKSYVKLISG was 0.011 ± 0.12; that for QGEKVEGLQAQALYWWRAKKDNHLNFNKNDVITVLEQQDMWWFGEVQGQKGWFPKSYVKLISG was -0.746 ± 0.23.
For QGEKVEGLQAQALYFWRAKKDNHLNFNKNDVITVLEQQDMWWFGEVQGQKGWFPKSYVKLISG, the abundance fitness was -0.224 ± 0.32.
Turning to QGEKVEGLQAQALYRWRAKKDNHLNFNKNDVITVLEQQDMWWFGEVQGQKGWFPKSYVKLISG, the abundance fitness is -0.018 ± 0.077.
As for QGEKVEGLQAQALYPWSAKKDNHLNFNKNDVITVLEQQDMWWFGEVQGQKGWFPKSYVKLISG, the figure is -0.043 ± 0.11; as for QGEKVEGLQAQALYPWFAKKDNHLNFNKNDVITVLEQQDMWWFGEVQGQKGWFPKSYVKLISG, -0.141 ± 0.27.
The value for QGEKVEGLQAQALYPWGAKKDNHLNFNKNDVITVLEQQDMWWFGEVQGQKGWFPKSYVKLISG was -0.306 ± 0.094.
As for QGEKVEGLQAQALYPWMAKKDNHLNFNKNDVITVLEQQDMWWFGEVQGQKGWFPKSYVKLISG, the figure is -0.081 ± 0.23; as for QGEKVEGLQAQALYPWKAKKDNHLNFNKNDVITVLEQQDMWWFGEVQGQKGWFPKSYVKLISG, -0.359 ± 0.36.
On to QGEKVEGLQAQALYPWLAKKDNHLNFNKNDVITVLEQQDMWWFGEVQGQKGWFPKSYVKLISG, for which the abundance fitness is -0.021 ± 0.11.
Take QGEKVEGLQAQALYPWVAKKDNHLNFNKNDVITVLEQQDMWWFGEVQGQKGWFPKSYVKLISG: the abundance fitness worked out at 0.061 ± 0.096.
As for QGEKVEGLQAQALYPWWAKKDNHLNFNKNDVITVLEQQDMWWFGEVQGQKGWFPKSYVKLISG, the figure is -0.24 ± 0.25; as for QGEKVEGLQAQALYPWPAKKDNHLNFNKNDVITVLEQQDMWWFGEVQGQKGWFPKSYVKLISG, -0.293 ± 0.25.
The value for QGEKVEGLQAQALYPWDAKKDNHLNFNKNDVITVLEQQDMWWFGEVQGQKGWFPKSYVKLISG was -0.163 ± 0.23; that for QGEKVEGLQAQALYPWTAKKDNHLNFNKNDVITVLEQQDMWWFGEVQGQKGWFPKSYVKLISG was -0.097 ± 0.18.
The value for QGEKVEGLQAQALYPWQAKKDNHLNFNKNDVITVLEQQDMWWFGEVQGQKGWFPKSYVKLISG was -0.066 ± 0.15.
In the case of QGEKVEGLQAQALYPWHAKKDNHLNFNKNDVITVLEQQDMWWFGEVQGQKGWFPKSYVKLISG, the abundance fitness was -0.108 ± 0.28.
As for QGEKVEGLQAQALYPWAAKKDNHLNFNKNDVITVLEQQDMWWFGEVQGQKGWFPKSYVKLISG, the figure is -0.19 ± 0.09; as for QGEKVEGLQAQALYPWEAKKDNHLNFNKNDVITVLEQQDMWWFGEVQGQKGWFPKSYVKLISG, -0.049 ± 0.18.
For QGEKVEGLQAQALYPPRAKKDNHLNFNKNDVITVLEQQDMWWFGEVQGQKGWFPKSYVKLISG, the abundance fitness was -0.691 ± 0.27.
As for QGEKVEGLQAQALYPSRAKKDNHLNFNKNDVITVLEQQDMWWFGEVQGQKGWFPKSYVKLISG, the figure is -0.053 ± 0.1.
Regarding QGEKVEGLQAQALYPKRAKKDNHLNFNKNDVITVLEQQDMWWFGEVQGQKGWFPKSYVKLISG, the abundance fitness was -0.427 ± 0.18.
As for QGEKVEGLQAQALYPIRAKKDNHLNFNKNDVITVLEQQDMWWFGEVQGQKGWFPKSYVKLISG, the abundance fitness came to 0.126 ± 0.2.
Consider QGEKVEGLQAQALYPNRAKKDNHLNFNKNDVITVLEQQDMWWFGEVQGQKGWFPKSYVKLISG, for which the abundance fitness is -0.199 ± 0.2.
Regarding QGEKVEGLQAQALYPERAKKDNHLNFNKNDVITVLEQQDMWWFGEVQGQKGWFPKSYVKLISG, the abundance fitness was -0.888 ± 0.44.
As for QGEKVEGLQAQALYPMRAKKDNHLNFNKNDVITVLEQQDMWWFGEVQGQKGWFPKSYVKLISG, the figure is -0.281 ± 0.26; as for QGEKVEGLQAQALYPYRAKKDNHLNFNKNDVITVLEQQDMWWFGEVQGQKGWFPKSYVKLISG, -0.32 ± 0.29.
On to QGEKVEGLQAQALYPQRAKKDNHLNFNKNDVITVLEQQDMWWFGEVQGQKGWFPKSYVKLISG, for which the abundance fitness was -0.396 ± 0.16.
The value for QGEKVEGLQAQALYPGRAKKDNHLNFNKNDVITVLEQQDMWWFGEVQGQKGWFPKSYVKLISG was -0.744 ± 0.12.
Regarding QGEKVEGLQAQALYPCRAKKDNHLNFNKNDVITVLEQQDMWWFGEVQGQKGWFPKSYVKLISG, the abundance fitness was -0.157 ± 0.17.
As for QGEKVEGLQAQALYPRRAKKDNHLNFNKNDVITVLEQQDMWWFGEVQGQKGWFPKSYVKLISG, the figure is -0.115 ± 0.084; as for QGEKVEGLQAQALYPTRAKKDNHLNFNKNDVITVLEQQDMWWFGEVQGQKGWFPKSYVKLISG, -0.646 ± 0.15.
On to QGEKVEGLQAQALYPFRAKKDNHLNFNKNDVITVLEQQDMWWFGEVQGQKGWFPKSYVKLISG, for which the abundance fitness was -0.092 ± 0.21.
The value for QGEKVEGLQAQALYPHRAKKDNHLNFNKNDVITVLEQQDMWWFGEVQGQKGWFPKSYVKLISG was -0.051 ± 0.26; that for QGEKVEGLQAQALYPLRAKKDNHLNFNKNDVITVLEQQDMWWFGEVQGQKGWFPKSYVKLISG was -0.046 ± 0.089; that for QGEKVEGLQAQALYPVRAKKDNHLNFNKNDVITVLEQQDMWWFGEVQGQKGWFPKSYVKLISG was -0.357 ± 0.08.
